Tested on: S. aureus 502A
Experiment: bactericidal colony-forming assay, S. aureus
Type: cell-based, Staphylococcus aureus
Description: FIGS. 5 A & B are graphs showing the bactericidal activity of rRNases A-1 and A-2. In panel (A) E. coli DH5α and in panel (B) S. aureus 502A were re-suspended in 100 mM sodium phosphate buffer, pH 7.4, and incubated with the indicated concentrations of chicken leukocyte RNase A-1 (open squares) and A-2 (closed circles) for 4 h at 37° C., plated on RNase-free LB agar, and grown overnight for colony counts.
RNase A polypeptides and fragments according to the invention that have bactericidal activity are particularly preferred for use in the treatment methods of the invention. The bactericidal and bacteriostatic activity of a particular RNase A polypeptides or fragments can be assessed by known protocols, such as that described in the methods section and the following described protocol, herein referred to as “a standard bacterial colony formation assay.” Bactericidal assays are well-described in the art, and are performed as described previously, and as exemplified in Examples 3-6. Briefly, an aliquot from a single bacterial colony overnight culture grown in Luria-Beitani (LB) broth is diluted 1:100 in sodium phosphate, pH 7.4, collected by centrifugation, and resuspended in sodium phosphate, pH 7.4. […]
Bactericidal assays were performed as described previously with modifications. […] All points were determined in triplicate.

Row | Molecule | effect on colony number of S. aureus (concentrations up to and including 5) | reduction of colony count of S. aureus (5 μM, 4 h at 37° C.) [fold]
1 | rRNase A-1: recombinant carboxy-terminal FLAG-tagged Gallus gallus leukocyte RNase A-1, SEQ ID NO: 2, GenBank DQ395275 (protein, listed as Gallus gallus, C-terminal FLAG tag) VPTYQDFLRTHVDFPKTSFPNIAAYCNVMMVRRGINVHGRCKSLNTFVHTDPRNLNTLCINQPNRALRTTQQQLPVTDCKLIRSHPTCSYTGNQFNHRVRVGCWGGLPVHLDGTFP | no effect | 
2 | rRNase A-2: recombinant carboxy-terminal FLAG-tagged Gallus gallus leukocyte RNase A-2, SEQ ID NO: 4, GenBank DQ395276 (protein, listed as Gallus gallus, C-terminal FLAG tag) VPTYQDFLYKHMDFPKTSFPSNAAYCNVMMVRRGMTAHGRCKSFNTFVHTDPRNLNTLCINQPDQALRTTRRHFRITDCKLIRSHPTCRYSGNQFNRRVRVGCRGGLPVHLDGTSP |  | 100

From patent US8748572B2, “RNase a peptides, fragments and uses thereof” (priority 2006, dated 2014)
